Reference: patent publication US20080311122A1 (AstraZeneca / MedImmune, published 2008)
Values belong to the binder of their own block, whether it stands above or below them.

Tests used:
[1] = target: T1, recombinant HMG1 purified from E. coli as a calmodulin binding protein (CBP) fusion protein (human, UniProt A9RA84 1-215 (Papio anubis entry)); assay: cell-based or functional assay
T1 sequence: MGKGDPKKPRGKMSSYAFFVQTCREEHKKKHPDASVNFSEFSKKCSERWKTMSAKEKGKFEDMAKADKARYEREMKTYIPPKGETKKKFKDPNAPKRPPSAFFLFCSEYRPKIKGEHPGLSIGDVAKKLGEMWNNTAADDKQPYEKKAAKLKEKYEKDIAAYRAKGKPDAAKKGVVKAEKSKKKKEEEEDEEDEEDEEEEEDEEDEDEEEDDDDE

HMG2 = target: T2, HMG2 (UniProt P40673 2-209, limits assumed); assay: ELISA, wells coated with HMGB2 at 5 ug/mL, OD 490
T2 construct: also called HMGB2; HMBG2
T2 sequence (looked up): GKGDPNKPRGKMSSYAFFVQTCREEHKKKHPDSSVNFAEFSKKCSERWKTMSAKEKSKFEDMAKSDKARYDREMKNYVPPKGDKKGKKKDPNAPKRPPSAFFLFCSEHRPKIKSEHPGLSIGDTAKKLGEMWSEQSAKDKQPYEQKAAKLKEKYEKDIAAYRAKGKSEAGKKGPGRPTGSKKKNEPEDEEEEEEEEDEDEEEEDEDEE
Protocol: (§1) Binding to HMG1 vs. HMG2: Ultra high-binding ELISA plates (ThermoLab systems, #3855) were coated with either 5 ug/mL of Calf thymus HMGB1 or HMBG2 diluted in 10 mM Phosphate buffered saline (PBS), pH 7.2 and incubate overnight at 4 degrees. The plates were washed twice with Ca and Mg free PBS and 100 microliters of anti-HMGB1 antibody diluted in 10 mM PBS, pH 7.2+1% bovine serum albumin (BSA) to a final concentration of 10 ug/mL was added to each well and the plates were incubated 1 hour at room temperature. The wells were washed three times with 100 μl of PBS, pH 7.2. HRP labeled goat-anti-human IgG Kappa-chain (KPL, #14-10-10) and goat-anti-human IgG Lambda-chain (KPL, #14-10-11) were diluted in 10 mM PBS+1% BSA 1:1000 and 100 μl were added to each well and incubated for 1 hour at room temperature. The wells were then washed three times with 100 μl of PBS, pH 7.2. OPD substrate (Pierce chemical company, #34006) was prepared following the manufacturers instructions and 100 μl of prepared substrate was added to each well and the plates incubated at room temperature in the dark for 20-30 minutes. The reaction was stopped with the addition of 100 μl of 2M H₂SO₄, and the plates read on a plate reader at a wavelength of 490 nm.

[2] = target: T3, HMG1 B Box peptide amino acids 91-169; assay: ELISA, wells coated with HMG1 B Box peptide 91-169 at 10 ug/ml
T3 construct: also called HMG1 peptide 91-169
T3 peptide: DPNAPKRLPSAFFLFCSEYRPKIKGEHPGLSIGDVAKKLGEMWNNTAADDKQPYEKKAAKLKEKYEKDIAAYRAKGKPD
Protocol: (§2) The plate was then blocked with 4% milk powder dissolved in PBS at 37° C. for 1 hour. The blocking solution was removed and replaced with human anti-HMG1 antibodies at various concentrations (see FIGS. 5A-B). […] HRP activity was detected with Sureblue HRP substrate (KPL). Plates were read at 450 nm using a Kinetic Microplate Reader (Molecular Devices). […] After washing and blocking with 1% BSA in PBS, the biotinylated peptides were individually added into the avidin coated wells and incubated for 30 min at room temperature. The serial diluted antibody G4, S16 and S6 at the initial concentration at 10 μg/ml were then transferred into the wells followed by adding mouse anti human IgG-HRP conjugate (Pierce). Detection was accomplished by adding 50 μl of tetramethylbenzidine (TMB) substrate (KPL) and the absorbance was read at […].

[3] = target: T4, HMG1 purified from bovine (calf) thymus (bovine, UniProt P10103 2-215); assay: ELISA, wells coated with calf thymus HMGB1 at 5 ug/mL, antibody at 10 ug/mL, anti-human kappa/lambda-HRP, OD 490
T4 construct: also called Calf thymus HMGB1; thymus HMG1
T4 sequence (looked up): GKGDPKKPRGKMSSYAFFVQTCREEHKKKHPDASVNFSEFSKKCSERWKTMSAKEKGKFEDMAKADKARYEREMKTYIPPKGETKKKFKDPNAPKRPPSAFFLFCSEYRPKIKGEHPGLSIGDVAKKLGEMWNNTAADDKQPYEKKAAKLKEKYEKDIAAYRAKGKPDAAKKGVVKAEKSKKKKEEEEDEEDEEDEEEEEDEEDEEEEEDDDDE
Protocol: as §1

[4] = target: T1, recombinant HMG1 purified from E. coli …; assay: BIAcore, mAb immobilized, HMG1 injected, steady-state model
Protocol: HMG1 Binding Affinity via BIAcore Analysis: All experiments were performed on a BIAcore 3000 instrument (BIAcore, Inc., Piscataway, N.J.). Briefly, each mAb was immobilized to a CM5 sensor chip using a standard amino coupling chemistry. Separately a reference (control) flow cell was also prepared. Two-fold, serial dilutions of HMG1 in instrument buffer were sequentially injected at a slow flow rate over the individual mAb and reference flow-cell surfaces. Following the binding and dissociation of HMG1, the mAbs surfaces were regenerated with a brief pulse of 1M NaCl-50 mM NaOH. At the end of each experiment, the binding curves were evaluated using a steady-state model available through the BIA evaluation software supplied by BIAcore, Inc. (Piscataway, N.J.).

[5] = target: T5, HMG1 B Box peptide amino acids 150-183; assay: ELISA, wells coated with HMG1 B Box peptide 150-183 at 10 ug/ml
T5 peptide: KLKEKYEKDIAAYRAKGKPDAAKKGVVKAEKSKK
Protocol: as §2

IC50, inhibition of HMG1 stimulated NO release from macrophages [1]: 20400 ng/mL
IC50, inhibition of rHMG1 stimulated IL-1β release from human PBMC [1]: 400 ng/mL
IC50, inhibition of rHMG1 stimulated IL-6 release from human PBMC [1]: 0.652 nM
IC50, inhibition of rHMG1 stimulated TNF-α release from human PBMC [1]: 598 ng/mL
binding result [2]: no binding (tested: 10 ug/ml (log 1.00))
binding result [3]: binds
B1: anti-HMG1 antibody G20 (antibody, V domains shown)
VH: EVQLLESGGGLVQPGGSLRLSCAASGFTFSWYDMFWVRQAPGKGLEWVSWISPSGGYTKYADSVKGRFTISRDNSKNTLYLQMNSLRAEDTAMYYCARSGLDYYDSSGYLDAFDIWGQGTMVTVSS
VL: DIQMTQSPSSVSASVGDRVTITCRASQDVSIWLAWYQQKPGKAPKLLIFGASRLQSGVPSRFSGSRSGADFTLTIDSVQPEDFASYYCQQADSFPLTFGGGTKVEIK
binding result (HMG2): no binding (tested: 10 ug/mL (not on the sheet))

IC50, inhibition of rHMG1 stimulated IL-1β release from human PBMC [1]: 211 ng/mL
IC50, inhibition of rHMG1 stimulated IL-6 release from human PBMC [1]: 0.246 nM
IC50, inhibition of rHMG1 stimulated TNF-α release from human PBMC [1]: 248 ng/mL
Kd [4]: 125 nM
binding result [2]: no binding (tested: 10 ug/ml (log 1.00))
binding result [5]: no binding (tested: 10 ug/ml (log 1.00))
binding result [3]: binds
B2: anti-HMG1 antibody G9 (antibody, V domains shown)
VH: EVQLLESGGGLVQPGGSLRLSCAASGFTFSSYDMFWVRQAPGKGLEWVSRISPSGGYTYYADSVKGRFTISRDNSKNTLYLQMNSLRAEDTAVYYCARLRYFDSRGYAFDIWGQGTMVTVSS
VL: DIQMTQSPGTLSLSPGERATLSCRASQSVRSSYLAWYQQKPGQAPRLLIYGASTRATGIPDRFSGSGSGTDFTLTISRLEPEDFAVYYCQQYGTSRWTFGQGTKVEIK
binding result (HMG2): no binding (tested: 10 ug/mL (not on the sheet))

IC50, inhibition of rHMG1 stimulated IL-1β release from human PBMC [1]: 5910 ng/mL
IC50, inhibition of rHMG1 stimulated IL-6 release from human PBMC [1]: 1.12 nM
IC50, inhibition of rHMG1 stimulated IL-12 release from human PBMC [1]: 2790 ng/mL
IC50, inhibition of rHMG1 stimulated TNF-α release from human PBMC [1]: 796 ng/mL
Kd [4]: 73 nM
binding result [2]: no binding (tested: 10 ug/ml (log 1.00))
binding result [5]: no binding (tested: 10 ug/ml (log 1.00))
binding result [3]: binds
B3: anti-HMG1 antibody G12 (antibody, V domains shown)
VH: EVQLLESGGGLVQPGGSLRLSCAASGFTFSYYMMTWVRQAPGKGLEWVSSISPSGGYTIYADSAKGRFTISRDNSKNTLYLQMNSLRAEDTAVYYCARALSTGSFWDYWGQGTLVTVSS
VL: DIQMTQSPGTLSLSPGERATLSCRASESLTSTYVAWYQHKPGQAPRLLIHGGSTRATGIPVRFSGSGSGTDFTLTIATLEPEDFAVYYCQQYGSSPYTFGQGTKLEIK
binding result (HMG2): no binding (tested: 10 ug/mL (not on the sheet))

IC50, inhibition of rHMG1 stimulated IL-1β release from human PBMC [1]: 67.8 ng/mL
IC50, inhibition of rHMG1 stimulated IL-6 release from human PBMC [1]: 0.191 nM
IC50, inhibition of rHMG1 stimulated TNF-α release from human PBMC [1]: 66.2 ng/mL
Kd [4]: 205 nM
binding result [2]: no binding (tested: 10 ug/ml (log 1.00))
binding result [5]: no binding (tested: 10 ug/ml (log 1.00))
binding result [3]: binds
B4: anti-HMG1 antibody S14 (antibody, V domains shown)
VH: EVQLLESGGGLVQPGGSLRLSCAASGFTFSWYETGWVRQAPGKGLEWVSGISPSGGYTQYADSVKGRFTISRDNSKNTLYLQMNSLRAEDTAVYYCARSGVGATKIFDYWGQGTLVTVSS
VL: DIQMTQSPSSLSASVGDRVTIICRANERINTYLNWYQQKPGKAPKLLISGTSSLESGVPSRFSGSGSGTEFTLSISSLQPEDFASYYCQQSYSSPYTFGQGTNLEIR
binding result (HMG2): no binding (tested: 10 ug/mL (not on the sheet))

IC50, inhibition of rHMG1 stimulated IL-6 release from human PBMC [1]: 0.858 nM
Kd [4]: 67 nM
binding result [2]: no binding (tested: 10 ug/ml (log 1.00))
binding result [5]: no binding (tested: 10 ug/ml (log 1.00))
binding result [3]: binds
B5: anti-HMG1 antibody G34 (antibody, V domains shown)
VH: EVQLLESGGGLVQPGGSLRLSCAASGFTFSHYMMGWVRQAPGKGLEWVSRISPSGGGTVYADSVKGRFTISRDNSKNTLYLQMNSLRAEDTAVYYCARGGNWNYISYYYYYLDVWGKGTTVTVSS
VL: DIQMTQSPSSLSASVGDRVAITCRASQSIDTYLNWYQQKPGKAPKLLIYAASKLEDGVPSRFSGSGTGTDFTLTIRSLQPEDFASYFCQQSYSSPGITFGPGTKVEIK
binding result (HMG2): no binding (tested: 10 ug/mL (not on the sheet))

IC50, inhibition of rHMG1 stimulated IL-6 release from human PBMC [1]: 0.564 nM
Kd [4]: 242 nM
binding result [5]: no binding (tested: 10 ug/ml (log 1.00))
binding result [3]: binds
B6: anti-HMG1 antibody G35 (antibody, V domains shown)
VH: EVQLLESGGGLVQPGGSLRLSCAASGFTFSWYKMVWVRQAPGKGLEWVSSIVPSGGITIYADSVKGRFTISRDNSKNTLYLQMNSLRAEDTAVYYCARVQQWLGRPYFDYWGQGTLVTVSS
VL: DIQMTQSPLSLPVTPGEPASISCRSSQSLLHGNGYNYLDWYLQRPGQSPQLLIYSGSNRASGVPDRFSGSGSGTDFTLKISRVEAEDVGVYYCMQSLQSRTFGQGTKVEIK
binding result (HMG2): no binding (tested: 10 ug/mL (not on the sheet))
